The record followed here is patent US20260053904A1 (BIOATLA, published 2026).

The target of experiment [1] is T1, recombinant human EpCAM extracellular domain (human, UniProt P16422 24-265).
T1 construct: extracellular domain; Plate-coated antigen of the ELISAs; also called human EpCAM ECD; recombinant EpCAM antigen
T1 sequence (looked up): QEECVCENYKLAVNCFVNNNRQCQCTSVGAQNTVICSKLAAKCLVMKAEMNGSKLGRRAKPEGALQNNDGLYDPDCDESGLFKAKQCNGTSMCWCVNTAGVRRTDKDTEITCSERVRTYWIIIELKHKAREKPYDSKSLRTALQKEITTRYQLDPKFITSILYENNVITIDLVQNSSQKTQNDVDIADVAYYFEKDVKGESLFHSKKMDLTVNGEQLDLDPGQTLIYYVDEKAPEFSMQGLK
The experiment in a line: ELISA of MMAE conjugates, human EpCAM, pH 7.4. On the procedure:
(§1) The humanized conditionally active anti-EpCAM antibodies were conjugated to MMAE to create antibody drug conjugates. Binding activities of the conjugated humanized conditionally active anti-EpCAM antibodies to human EpCAM were measured by ELISA at pH 6.0 and pH 7.4 at different antibody concentrations. […] The EC50 values for binding to the human EpCAM by the conjugated humanized conditionally active anti-EpCAM antibodies are summarized in Table 12.
(§2) The ELISA assay was performed using the following protocol: [0388] 1) Coat ELISA plates with 100 μL of 0.5 μg/mL (06_20_17 and 06_28_17 Experiments) or 1 μg/mL (07_06_17 and 07_11_17 Experiments) recombinant EpCAM antigen in carbonate-bicarbonate coating buffer [0389] 2) Cover plates with sealing film and incubate overnight at 4° C. [0390] 3) Decant plates and tap out residual liquid on a stack of paper towels [0391] […] 5) Add 200 μL of various pH incubation buffers to the wells according to the sample map.
(ELISA stands for enzyme-linked immunosorbent assay.)

The target in experiment [2] is T2, human EpCAM expressed on cells (CHO, Colo205, 293) (human, UniProt P16422 24-314).
T2 sequence (looked up): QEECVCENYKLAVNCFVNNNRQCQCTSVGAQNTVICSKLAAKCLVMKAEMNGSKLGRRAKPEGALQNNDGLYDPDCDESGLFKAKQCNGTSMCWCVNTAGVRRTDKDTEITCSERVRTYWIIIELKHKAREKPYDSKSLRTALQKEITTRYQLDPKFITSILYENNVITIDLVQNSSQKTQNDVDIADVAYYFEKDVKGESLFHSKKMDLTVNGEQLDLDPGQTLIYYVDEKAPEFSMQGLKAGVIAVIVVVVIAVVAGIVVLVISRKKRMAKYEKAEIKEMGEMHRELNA
The experiment is described as follows: cell-based or functional assay.

In experiment [3] the target is T3, cyno EpCAM (recombinant, ELISA antigen) (cynomolgus monkey).
T3 construct: extracellular domain; also called cynomolgus EpCAM extracellular domain
The experiment is described as follows: ELISA of MMAE conjugates, cyno EpCAM, pH 6.0. On the procedure:
(§3) A similar ELISA analysis was also carried out using cyno EpCAM to measure the binding affinities of the conjugated humanized conditionally active anti-EpCAM antibodies. […] The EC50 values for binding to the cyno EpCAM by the conjugated humanized conditionally active anti-EpCAM antibodies are summarized in Table 13.
as §2

Experiment [4] addresses T3, cyno EpCAM (recombinant, ELISA antigen). The experiment in a line: ELISA with pH titration, cyno EpCAM. On the procedure: (§4) Binding activities of the conjugated humanized conditionally active anti-EpCAM antibodies to cyno EpCAM were also measured by ELISA with pH titration. […] The ratios of binding activities at pH 6.0 and pH 7.4 to the cyno EpCAM by the conjugated humanized conditionally active anti-EpCAM antibodies, as well as their pH inflection points are summarized in Table 15.
as §2

The target in experiment [5] is T4, cyno EpCAM expressed on 293 cells (cynomolgus monkey).
T4 construct: whole, on cells; also called 293 cells expressing cyno EpCAM
The experiment in a line: FACS of MMAE conjugates on 293 cells expressing cyno EpCAM, pH 6.0. On the procedure: (§5) A similar FACS analysis was also carried out using 293 cells expressing cyno EpCAM. […] The EC50 values for binding to the 293 cells expressing cyno EpCAM by the conjugated humanized conditionally active anti-EpCAM antibodies are summarized in Table 18.

The target of experiment [6] is T2, human EpCAM expressed on cells (CHO, …). The experiment is described as follows: FACS of MMAE conjugates on Colo205 cells expressing human EpCAM, pH 6.0. On the procedure:
(§6) Binding activities of the conjugated humanized conditionally active anti-EpCAM antibodies (with MMAE) to Colo205 cells expressing human EpCAM was measured by FACS at two different pH: 6.0 and 7.4. […] The EC50 values for binding to the Colo205 cells expressing human EpCAM by the conjugated humanized conditionally active anti-EpCAM antibodies are summarized in Table 16.

Experiment [7] shares this target. The experiment is described as follows: FACS of MMAE conjugates on 293 cells expressing human EpCAM, pH 7.4. On the procedure: (§7) A similar FACS analysis was also carried out using 293 cells expressing human EpCAM. […] The EC50 values for binding to the 293 cells expressing human EpCAM by the conjugated humanized conditionally active anti-EpCAM antibodies are summarized in Table 17.

Experiment [8] deals with T1, recombinant human EpCAM extracellular …. The experiment in a line: ELISA of MMAE conjugates, human EpCAM, pH 6.0. On the procedure:
as §1, §2

Experiment [9] deals with T2, human EpCAM expressed on cells (CHO, …). The experiment in a line: FACS of MMAE conjugates on 293 cells expressing human EpCAM, pH 6.0. On the procedure:
as §7

For experiment [10], the target named is T3, cyno EpCAM (recombinant, ELISA antigen). The experiment is described as follows: ELISA of MMAE conjugates, cyno EpCAM, pH 7.4. On the procedure:
as §3, §2

The target in experiment [11] is T1, recombinant human EpCAM extracellular …. The experiment is described as follows: ELISA with pH titration, human EpCAM. On the procedure:
(§8) Binding activities of conjugated humanized conditionally active anti-EpCAM antibodies to human EpCAM were measured by ELISA with pH titration. […] The ratios of binding activities to human EpCAM of the conjugated humanized conditionally active anti-EpCAM antibodies at pH 6.0 and pH 7.4, as well as their pH inflection points are summarized in Table 14.
as §2

Experiment [12] concerns the target T2, human EpCAM expressed on cells (CHO, …). The experiment is described as follows: FACS of MMAE conjugates on Colo205 cells expressing human EpCAM, pH 7.4. On the procedure: as §6
For experiment [13], the target named is T4, cyno EpCAM expressed on 293 cells. The experiment in a line: FACS of MMAE conjugates on 293 cells expressing cyno EpCAM, pH 7.4. On the procedure: as §5
Experiment [14] has as its target T3, cyno EpCAM (recombinant, ELISA antigen). The experiment is described as follows: ELISA with pH titration, cyno EpCAM; ratio of binding activities at pH 6.0 and pH 7.4. On the procedure: as §4, §2
In experiment [15] the target is T1, recombinant human EpCAM extracellular …. The experiment in a line: direct binding ELISA, human EpCAM, pH 7.4 (table prints IC50, the text paragraph 376 says EC50).
Experiment [16] has the same target. The experiment in a line: direct binding ELISA, human EpCAM, pH 6.0 (table prints IC50, the text paragraph 376 says EC50).
Experiment [17] concerns the target T3, cyno EpCAM (recombinant, ELISA antigen). The experiment is described as follows: direct binding ELISA, cyno EpCAM, pH 7.4 (printed as IC50).
The target in experiment [18] is T1, recombinant human EpCAM extracellular …. The experiment is described as follows: direct binding ELISA, human EpCAM; ratio of the printed IC50 at pH 7.4 to pH 6.0.
For experiment [19], the target named is T3, cyno EpCAM (recombinant, ELISA antigen). The experiment in a line: direct binding ELISA, cyno EpCAM, pH 6.0 (printed as IC50).
Experiment [20] shares this target. The experiment in a line: direct binding ELISA, cyno EpCAM; ratio of the printed IC50 at pH 7.4 to pH 6.0.
Experiment [21] concerns the target T1, recombinant human EpCAM extracellular …. The experiment in a line: ELISA with pH titration, human EpCAM; ratio of binding activities at pH 6.0 and pH 7.4. On the procedure: as §8, §2

Changes are numbered by the printed parent chain.

T4 sequence (Q1WER1 24-314): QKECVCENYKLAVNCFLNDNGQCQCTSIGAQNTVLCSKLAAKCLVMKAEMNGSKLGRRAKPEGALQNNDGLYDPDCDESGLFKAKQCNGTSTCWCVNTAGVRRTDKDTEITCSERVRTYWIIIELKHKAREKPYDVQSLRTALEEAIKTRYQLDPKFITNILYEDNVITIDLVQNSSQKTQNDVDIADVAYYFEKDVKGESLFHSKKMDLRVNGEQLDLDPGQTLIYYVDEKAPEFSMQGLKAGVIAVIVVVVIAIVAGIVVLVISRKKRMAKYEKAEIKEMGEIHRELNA

B1: BA-105-01-01 7376-vcMMAE (antibody, V domains shown)
VH: QVQLQQSGAELAKPGASVKVSCKASGYTFTSYWMHWVKQRPGQGLEWIGYIRPSTGYTEYNQKFKDKATLTADKSSSTAYMQLSSLTFEDSAVYYCGRGDNWVGFANWGQGTLVTVSA
VL: QIVLTQSPAIMSASLGEEIALTCSASSSISYMHWYQQKSGTSPKLLIYSTSNLASGVPSRFSGSGSGTFYSLTISSVEAEDAADYFCHQWSTYHTFGSGTKLEIK
modifications: antibody conjugated to vcMMAE; chain and residues of attachment not stated
For orientation: EC50 means the concentration needed to bring the measured effect to its halfway point. Turning to B1, the EC50 in [1] came out at 0.0147 µg/mL; in experiment [3], 0.0311 µg/mL; in experiment [5], 1.36 µg/mL; in experiment [6], 0.301 µg/mL; in experiment [7], 0.112 µg/mL; in experiment [8] it was 0.024 µg/mL. Further, the EC50 amounted to 0.129 µg/mL in experiment [9], 0.0234 µg/mL in [10], 0.375 µg/mL in experiment [12] and 1.74 µg/mL in experiment [13]. The “IC50 for the in vitro killing of Colo205 cells, pH6.0” value in experiment [2] worked out at 12.9 ng/mL. Besides, the “IC50 for the in vitro killing of Colo205 cells, pH7.4” value in experiment [2] amounted to 16.8 ng/mL. In [2], the “ratio (pH7.4/pH6.0) of the IC50 for the in vitro killing of Colo205 cells” value turned out to be 1.3. Also, the pH inflection point in experiment [4] came to 5.07 pH; in [11], 6.71 pH. Moreover, the “ratio (pH 6.0/7.4)” value in [14] worked out at 0.93.

B2: BA-105-06-01 (antibody, V domains shown)
VH: EVQLVQSGAEVKKPGATVKISCKVSGYTFTSYWMHWIRQPPGKGLEWIGYIRPSTGYTEYNQKFKDRFTISRDNSKNTLYLQMNSLRAEDTAVYYCGRGDNWVGFANWGQGTLVTVSS
VL: EIVLTQSPDFQSVTPKEKVTITCSASSSISYMHWYQQKPGKAPKLLIYSTSKLASGVPDRFSGSGSGTDFTLKISRVEAEDVGVYYCHQWSTYETFGQGTKVEIK
notes: Humanized
The term IC50 denotes the concentration at which inhibition is half-maximal. Consider B2, for which the IC50 in experiment [15] is 0.168 µg/mL; in [16], 0.0299 µg/mL; in experiment [17], 0.0635 µg/mL; in experiment [19], 0.00371 µg/mL. Moreover, the “ratio (pH7.4/pH6.0)” value stood at 5.6 in [18] and 17.1 in experiment [20].

B3: BA-105.4-02-01 8318-vcMMAE (antibody, V domains shown)
VH: B2 VH with I37V, P40A, K43Q, I48M
VL: EIVMTQSPATLSVSPGERATLSCSASSSISYMHWYQQKPGKAPKLLIYSTSNLASGVPSRFSGSGSGTEFTLTISSLQPDDFATYYCHQWSTYETFGQGTKVEIK
modifications: antibody conjugated to vcMMAE; chain and residues of attachment not stated
Turning to B3, the EC50 in [1] worked out at 0.22 µg/mL; in [3], 0.0809 µg/mL; in experiment [5], 7.96 µg/mL; in experiment [6], 0.464 µg/mL; in [7] it was 0.335 µg/mL; in experiment [8], 0.0324 µg/mL. The EC50 in experiment [9] was 0.206 µg/mL; in experiment [10], 0.249 µg/mL; in experiment [12] it was 0.693 µg/mL; in experiment [13], 61.1 µg/mL. Moreover, the pH inflection point is 6.16 pH in [4] and 6.83 pH in experiment [11]. The results for the “ratio (pH 6.0/7.4)” value in experiment [21] and in [14] were 6.74 and 3.61, respectively.

B4: BA-105.4-01-02 8316-vcMMAE (antibody, V domains shown)
VH: EVQLVQSGAEVKKPGESLRISCKGSGYTFTSYWMHWIRQSPSRGLEWLGYIRPSTGYTEYNQKFKDRVTISADKSISTAYLQWSSLKASDTAMYYCGRGDNWVGFANWGQGTLVTVSS
VL: B2 VL with K52N
modifications: antibody conjugated to vcMMAE; chain and residues of attachment not stated
For the molecule B4, the concentration for a half-maximal effect (EC50) in [1] was 0.127 µg/mL; in [3] it was 0.0877 µg/mL; in experiment [5], 4.72 µg/mL; in [6], 0.15 µg/mL; in [7] it was 0.0849 µg/mL; in [8] it was 0.0392 µg/mL. The EC50 in experiment [9] is 0.0637 µg/mL; in [10], 0.257 µg/mL; in experiment [12], 0.153 µg/mL; in experiment [13], 17.7 µg/mL. For the same molecule, the pH inflection point in experiment [4] came to 6.3 pH. The “ratio (pH 6.0/7.4)” value in [21] came to 1.75; in [14], 2.75.

B5: BA-105.4-01-05 8317-vcMMAE (antibody, V domains shown)
VH: B2 VH
VL: B2 VL with K52N
modifications: antibody conjugated to vcMMAE; chain and residues of attachment not stated
In the case of B5, the EC50 in experiment [1] worked out at 0.0703 µg/mL; in [3], 0.0659 µg/mL; in experiment [5] it was 5.54 µg/mL; in [6] it was 0.188 µg/mL; in experiment [7] it was 0.109 µg/mL; in experiment [8], 0.0306 µg/mL. Further, the EC50 in experiment [9] amounted to 0.0772 µg/mL; in experiment [10] it was 0.3 µg/mL; in experiment [12], 0.203 µg/mL; in experiment [13], 43.4 µg/mL. The pH inflection point in experiment [4] worked out at 6.28 pH; in experiment [11], 6.98 pH. The “ratio (pH 6.0/7.4)” value amounted to 2.39 in [21] and 2.76 in experiment [14].
